Results on four molecules are retold here after paper PMC4731781, “The β2 clamp in the Mycobacterium tuberculosis DNA polymerase III αβ2ε replicase promotes polymerization and reduces exonuclease activity” (Scientific Reports, 2016).

Assay [1] deals with beta2 clamp (Escherichia coli) (UniProt P0A988). Conditions: cited from earlier work.
The target is the same in assay [2]. Conditions: cited from earlier work. The source holds these as a separate data set.
The target of assay [3] is T1, Mtb DNA Pol III δ subunit (HolA) (Mycobacterium tuberculosis, UniProt P71730 1-322).
T1 sequence: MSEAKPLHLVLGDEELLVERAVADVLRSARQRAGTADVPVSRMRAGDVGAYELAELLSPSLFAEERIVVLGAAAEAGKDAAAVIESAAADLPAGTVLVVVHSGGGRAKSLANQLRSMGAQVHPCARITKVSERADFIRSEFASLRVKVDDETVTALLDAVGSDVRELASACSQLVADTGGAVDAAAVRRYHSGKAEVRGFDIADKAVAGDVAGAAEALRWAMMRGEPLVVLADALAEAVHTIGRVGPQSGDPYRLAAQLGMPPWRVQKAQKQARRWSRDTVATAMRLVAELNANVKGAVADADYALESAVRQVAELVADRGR
As to the kind of experiment: co-purification, densitometry of an SDS-PAGE gel. The conditions noted are these: partners not purified.

Assay [4] concerns the target T2, Mtb DNA Pol III δ’ subunit (HolB) (Mycobacterium tuberculosis, UniProt Q7D554 1-404).
T2 sequence: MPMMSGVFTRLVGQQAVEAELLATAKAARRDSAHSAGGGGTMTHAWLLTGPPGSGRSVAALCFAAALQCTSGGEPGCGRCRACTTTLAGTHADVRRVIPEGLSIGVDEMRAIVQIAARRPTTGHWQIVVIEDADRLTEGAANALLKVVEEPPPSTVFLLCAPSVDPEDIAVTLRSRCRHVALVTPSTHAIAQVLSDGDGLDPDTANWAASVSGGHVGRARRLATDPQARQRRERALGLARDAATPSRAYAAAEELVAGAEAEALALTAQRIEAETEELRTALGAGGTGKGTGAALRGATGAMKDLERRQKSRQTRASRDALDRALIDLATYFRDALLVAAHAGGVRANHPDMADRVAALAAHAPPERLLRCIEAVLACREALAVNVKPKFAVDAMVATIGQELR
The assay can be described thus: co-purification, densitometry of an SDS-PAGE gel. The conditions noted are these: partners not purified.

For assay [5], the target named is T3, Mtb DNA Pol III α subunit (DnaE1), purified recombinant (Mycobacterium tuberculosis, UniProt P9WNT7 1-1184).
T3 construct: also called Mtb α; MtbDnaE1; source: E. coli, purified
T3 sequence: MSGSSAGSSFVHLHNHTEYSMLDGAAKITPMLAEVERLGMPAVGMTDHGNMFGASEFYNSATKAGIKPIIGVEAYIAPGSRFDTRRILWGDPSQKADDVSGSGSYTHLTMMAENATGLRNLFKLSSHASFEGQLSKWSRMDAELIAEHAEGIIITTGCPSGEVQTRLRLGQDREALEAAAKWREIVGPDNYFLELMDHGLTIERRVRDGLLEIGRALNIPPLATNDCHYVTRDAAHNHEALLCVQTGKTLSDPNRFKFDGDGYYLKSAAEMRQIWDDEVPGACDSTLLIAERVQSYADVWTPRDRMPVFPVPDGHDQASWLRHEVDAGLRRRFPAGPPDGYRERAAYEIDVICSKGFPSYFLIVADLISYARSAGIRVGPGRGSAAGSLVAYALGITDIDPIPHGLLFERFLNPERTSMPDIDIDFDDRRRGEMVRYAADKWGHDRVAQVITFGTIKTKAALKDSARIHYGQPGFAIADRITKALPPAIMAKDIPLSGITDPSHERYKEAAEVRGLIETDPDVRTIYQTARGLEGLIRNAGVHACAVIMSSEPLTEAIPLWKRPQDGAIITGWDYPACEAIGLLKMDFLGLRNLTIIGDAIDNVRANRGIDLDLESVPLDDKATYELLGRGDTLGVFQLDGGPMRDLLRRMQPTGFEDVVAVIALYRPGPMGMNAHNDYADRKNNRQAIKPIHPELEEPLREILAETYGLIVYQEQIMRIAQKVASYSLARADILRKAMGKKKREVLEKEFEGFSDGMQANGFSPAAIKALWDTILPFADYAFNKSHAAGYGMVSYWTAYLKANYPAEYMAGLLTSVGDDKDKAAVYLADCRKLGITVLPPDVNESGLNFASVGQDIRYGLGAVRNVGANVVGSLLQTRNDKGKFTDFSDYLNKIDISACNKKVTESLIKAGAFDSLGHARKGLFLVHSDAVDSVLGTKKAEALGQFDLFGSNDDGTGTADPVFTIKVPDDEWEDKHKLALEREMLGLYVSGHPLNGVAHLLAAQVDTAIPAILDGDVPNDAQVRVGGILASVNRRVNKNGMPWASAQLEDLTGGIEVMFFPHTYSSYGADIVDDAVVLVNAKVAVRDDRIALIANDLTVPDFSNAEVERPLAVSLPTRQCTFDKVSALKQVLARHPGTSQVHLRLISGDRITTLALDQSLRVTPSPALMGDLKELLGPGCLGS
As to the kind of experiment: SPR; BIAcore3000, β subunit amine-coupled to the chip (about 1800 RU); α injected at 0.01, 0.1 and 1 μM in 50 mM HEPES pH 7.5, 100 mM NaCl, 0.005% Tween20, 30 μl/min; global fit to a 1:1 Langmuir model. The conditions noted are these: both partners purified. (In general: SPR reads the build-up and loss of mass on a sensor chip optically.)

Where two headings read alike, the source gives them in different places.

beta2 clamp (Escherichia coli), sequence (P0A988 whole entry): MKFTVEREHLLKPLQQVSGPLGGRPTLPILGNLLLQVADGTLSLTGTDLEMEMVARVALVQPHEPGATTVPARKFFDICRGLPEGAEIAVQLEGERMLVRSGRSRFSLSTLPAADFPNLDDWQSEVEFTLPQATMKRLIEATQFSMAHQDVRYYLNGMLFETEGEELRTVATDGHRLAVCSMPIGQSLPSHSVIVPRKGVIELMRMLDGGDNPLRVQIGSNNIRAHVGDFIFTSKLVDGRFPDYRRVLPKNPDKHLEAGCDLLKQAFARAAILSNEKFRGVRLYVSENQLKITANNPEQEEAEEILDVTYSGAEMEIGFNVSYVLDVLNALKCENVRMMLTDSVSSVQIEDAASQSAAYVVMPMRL

By Kd is commonly meant the concentration at which binding is half-saturated. As for “DNA polymerase III alpha (from UniProt P10443)”, in assay [1], the Kd is 1200 nM.

“DNA polymerase III epsilon (from UniProt P03007)”: in assay [2], the equilibrium dissociation constant (Kd) is 200000 nM.

B1: Mtb DNA Pol III τ subunit (DnaZX) (natural protein)
chain: MALYRKYRPASFAEVVGQEHVTAPLSVALDAGRINHAYLFSGPRGCGKTSSARILARSLNCAQGPTANPCGVCESCVSLAPNAPGSIDVVELDAASHGGVDDTRELRDRAFYAPVQSRYRVFIVDEAHMVTTAGFNALLKIVEEPPEHLIFIFATTEPEKVLPTIRSRTHHYPFRLLPPRTMRALLARICEQEGVVVDDAVYPLVIRAGGGSPRDTLSVLDQLLAGAADTHVTYTRALGLLGVTDVALIDDAVDALAACDAAALFGAIESVIDGGHDPRRFATDLLERFRDLIVLQSVPDAASRGVVDAPEDALDRMREQAARIGRATLTRYAEVVQAGLGEMRGATAPRLLLEVVCARLLLPSASDAESALLQRVERIETRLDMSIPAPQAVPRPSAAAAEPKHQPAREPRPVLAPTPASSEPTVAAVRSMWPTVRDKVRLRSRTTEVMLAGATVRALEDNTLVLTHESAPLARRLSEQRNADVLAEALKDALGVNWRVRCETGEPAAAASPVGGGANVATAKAVNPAPTANSTQRDEEEHMLAEAGRGDPSPRRDPEEVALELLQNELGARRIDNA
notes: Three copies in the clamp loader τ3δδ’ by densitometry
As for B1, the figures for the “stoichiometry N” value in assay [3] and in assay [4] were 3 τ per δ and 3 τ per δ’, respectively.

B2: Mtb DNA Pol III β2 clamp (DnaN), purified recombinant (natural protein)
chain: MDAATTRVGLTDLTFRLLRESFADAVSWVAKNLPARPAVPVLSGVLLTGSDNGLTISGFDYEVSAEAQVGAEIVSPGSVLVSGRLLSDITRALPNKPVDVHVEGNRVALTCGNARFSLPTMPVEDYPTLPTLPEETGLLPAELFAEAISQVAIAAGRDDTLPMLTGIRVEILGETVVLAATDRFRLAVRELKWSASSPDIEAAVLVPAKTLAEAAKAGIGGSDVRLSLGTGPGVGKDGLLGISGNGKRSTTRLLDAEFPKFRQLLPTEHTAVATMDVAELIEAIKLVALVADRGAQVRMEFADGSVRLSAGADDVGRAEEDLVVDYAGEPLTIAFNPTYLTDGLSSLRSERVSFGFTTAGKPALLRPVSGDDRPVAGLNGNGPFPAVSTDYVYLLMPVRLPG
notes: DNA polymerase III β subunit (sliding clamp) DnaN of Mycobacterium tuberculosis; also called β subunit; β clamp
Turning to B2, the dissociation constant Kd in assay [5] came to 10.9 nM.
